Data set [1] concerns the molecule itself. The data set is described as follows: SAXS; concentration series 0.27-9.15 mg/mL, 3 to 5% glycerol added; KD by nonlinear regression of experimental Rg^2 versus concentration (Equation 4) with theoretical Rg of monomer and dimer for zero to two N-glycosylations; dimer to monomers.
Data set [2] concerns the molecule itself. The data set is described as follows: SAXS Guinier Rg, model with 1x N-glycosylation.
Data set [3] deals with the molecule itself. Description: static light scattering; DynaPro NanoStar, 20 °C, quartz cuvette, several protein concentrations; molecular mass increased with protein concentration; no significant change of hydrodynamic radii and molecular mass in the presence of Ca2+; monomer to dimer.

These results are taken from paper PMC10687090, “The dimerized pentraxin-like domain of the adhesion G protein–coupled receptor 112 (ADGRG4) suggests function in sensing mechanical forces” (The Journal of Biological Chemistry, 2023).

B1: PTX-like domain of the human ADGRG4 (residues 1-240) (domain or fragment, UniProt Q8IZF6-1 28-240, looked up)
chain: LKGKKLDFFGRGDTYVSLIDTIPELSRFTACIDLVFMDDNSRYWMAFSYITNNALLGREDIDLGLAGDHQQLILYRLGKTFSIRHHLASFQWHTICLIWDGVKGKLELFLNKERILEVTDQPHNLTPHGTLFLGHFLKNESSEVKSMMRSFPGSLYYFQLWDHILENEEFMKCLDGNIVSWEEDVWLVNKIIPTVDRTLRCFVPENMTIQEKS
modifications: N-glycosylated (heterogeneous; putative N-glycosylation sites N166 and N233)
notes: signal peptide in the construct: human ADGRG4 (GPR112) residues 1-240, UniProt Q8IZF6-1; residues 1 to 25 are a signal peptide and are not present in the secreted protein; residues 26-162 and 176-231 are resolved in the crystal structure; Expected monomer mass printed as 30.5 kDa; also called G4-PTX; ADGRG4-PTX
In general, Kd refers to the equilibrium constant for the complex coming apart. A low value points to higher affinity. Broadly, the stoichiometry N is a count of units in the complex or per binding partner. On to B1, for which the values for the Kd in data set [1] and in data set [2] were 7 to 32 µM and 20 µM, respectively. Besides, in data set [3], the “stoichiometry N” value came out at 2.
